{
  "source": "patent US20140363865A1",
  "about": "“SUPPLEMENTATION OF FATTY ACIDS FOR IMPROVING ALCOHOL PRODUCTIVITY” (BUTAMAX ADVANCED BIOFUELS LLC, priority 2010, published 2014)",
  "key": {"S. cerevisiae culture": {"system": "S. cerevisiae culture", "details": "cerulenin added to the culture; cited from earlier work"}, "[1]": {"test": "Lipase screening for treatment of ground whole corn kernels prior to liquefaction (Example 25)", "assay_type": "biochemical", "details": "55° C., pH 5.8", "procedure": "Seven reaction mixtures containing tap water (67.9 g) and ground whole corn kernels (35.1 g wet wt., ground with 1.0 mm screen using a hammer mill) at pH 5.8 were stirred at 55° C. in stoppered flasks. A 3-mL sample (t=0 h) was removed from each flask and the sample immediately frozen on dry ice, then ca. 0.5 mL of 10 mM sodium phosphate buffer (pH 7.0) containing 1 mg total soluble protein (10 ppm final concentration in reaction mixture) of one of the following lipases (Novozymes) were added to one of each flask: Lipolase® 100 L, Lipex® 100L, Lipoclean® 2000T, Lipozyme® CALB L, Novozyme® CALA L, and Palatase 20000L; no lipase was added to the seventh flask. The resulting mixtures were stirred at 55° C. in stoppered flasks, and 3-mL samples were withdrawn from each reaction mixture at 1 h, 2 h, 4 h and 6 h and immediately frozen in dry ice until analyzed for wt % lipid (derivatized as fatty acid methyl esters, FAME) and for wt % free fatty acid (FFA, derivatized as fatty acid methyl esters, FAME) according to the method described by Reference 1, and the percent free fatty acid content was calculated relative to the total combined concentrations of lipid and free fatty acid was determined for each sample."}, "[2]": {"test": "Heat inactivation of lipase in lipase-treated liquefied corn mash mixed with oleyl alcohol (Example 22)", "assay_type": "biochemical", "procedure": "Tap water (918.4 g) was added to a jacketed 2-L resin kettle, then 474.6 g wet weight (417.6 g dry weight) of ground whole corn kernels (1.0 mm screen on hammer mill) was added with stirring. The mixture was heated to 55° C. with stirring at 300 rpm, and the pH adjusted to 5.8 with 2 N sulfuric acid. To the mixture was added 14.0 g of an aqueous solution containing 0.672 g of Spezyme®-FRED L (Genencor®, Palo Alto, Calif.), and the temperature of the mixture increased to 85° C. with stirring at 600 rpm and pH 5.8. After 120 minutes at 85° C., the mixture was cooled to 50° C. and 45.0 mL aliquots of the resulting liquefied corn mash were transferred to 50-mL polypropylene centrifuge tubes and stored frozen at −80° C.\nIn a first reaction, 50 g of liquefied corn mash prepared as described above was mixed with 10 ppm Lipolase® 100 L (Novozymes) for 6 h at 55° C. and with no inactivation of lipase at 85° C. for 1 h, the mixture was cooled to 30° C. In a second reaction, 50 g of liquefied corn mash was mixed with 10 ppm Lipolase® for 6 h at 55° C., then heated to 85° C. for 1 h (lipase inactivation), then cooled to 30° C. In a third reaction, 50 g of liquefied corn mash without added lipase was mixed for 6 h at 55° C., and with no heating at 85° C. for 1 h, the mixture was cooled to 30° C., 38 g of oleyl alcohol was added, and the resulting mixture stirred for 73 h at 30° C. In a fourth reaction, 50 g of liquefied corn mash without added lipase was mixed for 6 h at 55° C., then heated to 85° C. for 1 h, then cooled to 30° C. Each of the four reaction mixtures was sampled at 6 h, then 38 g of oleyl alcohol added, and the resulting mixtures stirred at 30° C. and sampled at 25 h and 73 h. Samples (both liquefied mash and oleyl alcohol (OA)) were analyzed for wt % lipid (derivatized as fatty acid methyl esters, FAME) and for wt % free fatty acid (FFA, derivatized as fatty acid methyl esters, FAME) according to the method described by Reference 1."}, "[3]": {"test": "Lipase treatment of ground whole corn kernels prior to liquefaction, then mixing with oleyl alcohol (Example 24)", "assay_type": "biochemical", "procedure": "Tap water (1377.6 g) was added into each of two jacketed 2-L resin kettles, then 711.9 g wet weight (625.8 g dry weight) of ground whole corn kernels (1.0 mm screen on hammer mill) was added to each kettle with stirring. Each mixture was heated to 55° C. with stirring at 300 rpm, and the pH adjusted to 5.8 with 2 N sulfuric acid. To each mixture was added 21.0 g of an aqueous solution containing 1.008 g of Spezyme®-FRED L (Genencor®, Palo Alto, Calif.). To one mixture was then added 10.5 mL of aqueous solution of Lipolase® 100L Solution (21 mg total soluble protein, 10 ppm lipase final concentration) and to the second mixture was added 1.05 mL of aqueous solution of Lipolase® 100L Solution (2.1 mg total soluble protein, 1.0 ppm lipase final concentration). Samples were withdrawn from each reaction mixture at 1 h, 2 h, 4 h and 6 h at 55° C., then the temperature of the mixture was increased to 85° C. with stirring at 600 rpm and pH 5.8, and a sample was taken when the mixture first reached 85° C. After 120 minutes at 85° C., a sample was taken and the mixtures were cooled to 50° C. and final samples of the resulting liquefied corn mash were transferred to 50-mL polypropylene centrifuge tubes; all samples were stored frozen at −80° C.\nIn two separate reactions, a 50 g sample of the 10 ppm lipase-treated liquefied corn mash or a 55 g sample of the 1.0 ppm lipase-treated liquefied corn mash prepared as described above was mixed with oleyl alcohol (OA) (38 g) at 30° C. for 20 h, then the liquefied mash and OA in each reaction mixture were separated by centrifugation and each phase analyzed for wt % lipid (derivatized as fatty acid methyl esters, FAME) and for wt % free fatty acid (FFA, derivatized as fatty acid methyl esters, FAME) according to the method described by Reference 1. The % FFA in the OA phase of the liquefied mash/OA mixture prepared using heat inactivation of 10 ppm lipase during liquefaction was 98% at 20 h, compared to only 62% FFA in the OA phase of the liquefied mash/OA mixture prepared using heat inactivation of 1.0 ppm lipase during liquefaction."}, "[4]": {"details": "0 h (sample before lipase addition)"}},
  "data": [
    {"molecule": "C/C=C/C/C=C/CCC(=O)[C@H]1O[C@H]1C(N)=O", "note": "[Cerulenin, cerulenin]", "values": [
      {"measurement": "growth of S. cerevisiae culture", "setting": "S. cerevisiae culture", "result": "inhibition of the growth"}
    ]},
    {"molecule": "Palatase ® 20000 L: commercial lipase preparation available from Novozymes (protein, UniProt P19515 95-363, looked up) Lipase: SIDGGIRAATSQEINELTYYTTLSANSYCRTVIPGATWDCIHCDATEDLKIIKTWSTLIYDTNAMVARGDSEKTIYIVFRGSSSIRNWIADLTFVPVSYPPVSGTKVHKGFLDSYGEVQNELVATVLDQFKQYPSYKVAVTGHSLGGATALLCALDLYQREEGLSSSNLFLYTQGQPRVGDPAFANYVVSTGIPYRRTVNERDIVPHLPPAAFGFLHAGEEYWITDNSPETVQVCTSDLETSDCSNSIVPFTSVLDHLSYFGINTGLCT", "values": [
      {"measurement": "% FFA", "setting": "[1]; [4]", "result": 37, "unit": "%"},
      {"measurement": "% FFA", "setting": "[1]; 1 h, 10 ppm lipase", "result": 49, "unit": "%"},
      {"measurement": "% FFA", "setting": "[1]; 2 h, 10 ppm lipase", "result": 59, "unit": "%"},
      {"measurement": "% FFA", "setting": "[1]; 4 h, 10 ppm lipase", "result": 62, "unit": "%"},
      {"measurement": "% FFA", "setting": "[1]; 6 h, 10 ppm lipase", "result": 66, "unit": "%"}
    ]},
    {"molecule": "Lipolase ® 100 L: commercial lipase preparation available from Novozymes (protein, UniProt O59952 23-291, looked up) Lipase: EVSQDLFNQFNLFAQYSAAAYCGKNNDAPAGTNITCTGNACPEVEKADATFLYSFEDSGVGDVTGFLALDNTNKLIVLSFRGSRSIENWIGNLNFDLKEINDICSGCRGHDGFTSSWRSVADTLRQKVEDAVREHPDYRVVFTGHSLGGALATVAGADLRGNGYDIDVFSYGAPRVGNRAFAEFLTVQTGGTLYRITHTNDIVPRLPPREFGYSHSSPEYWIKSGTLVPVTRNDIVKIEGIDATGGNNQPNIPDIPAHLWYFGLIGTCL", "values": [
      {"measurement": "% FFA", "setting": "[2]; 10 ppm active lipase, no 85° C. heat treatment, 6 h, liq. mash", "result": 89, "unit": "%"},
      {"measurement": "% FFA", "setting": "[2]; 10 ppm active lipase, no 85° C. heat treatment, 25 h, OA", "result": 40, "unit": "%"},
      {"measurement": "% FFA", "setting": "[2]; 10 ppm active lipase, no 85° C. heat treatment, 25 h, liq. mash", "result": 20, "unit": "%"},
      {"measurement": "% FFA", "setting": "[2]; 10 ppm active lipase, no 85° C. heat treatment, 73 h, OA", "result": 21, "unit": "%"},
      {"measurement": "% FFA", "setting": "[2]; 10 ppm active lipase, no 85° C. heat treatment, 73 h, liq. mash", "result": 18, "unit": "%"},
      {"measurement": "% FFA", "setting": "[2]; 10 ppm inactive lipase, 85° C. heat treatment, 6 h, liq. mash", "result": 89, "unit": "%"},
      {"measurement": "% FFA", "setting": "[2]; 10 ppm inactive lipase, 85° C. heat treatment, 25 h, OA", "result": 99, "unit": "%"},
      {"measurement": "% FFA", "setting": "[2]; 10 ppm inactive lipase, 85° C. heat treatment, 25 h, liq. mash", "result": 53, "unit": "%"},
      {"measurement": "% FFA", "setting": "[2]; 10 ppm inactive lipase, 85° C. heat treatment, 73 h, OA", "result": 95, "unit": "%"},
      {"measurement": "% FFA", "setting": "[2]; 10 ppm inactive lipase, 85° C. heat treatment, 73 h, liq. mash", "result": 62, "unit": "%"},
      {"measurement": "% FFA", "setting": "[3]; 1.0 ppm lipase at 55° C., 1 h, pre-liquefaction", "result": 54, "unit": "%"},
      {"measurement": "% FFA", "setting": "[3]; 1.0 ppm lipase at 55° C., 2 h, pre-liquefaction", "result": 51, "unit": "%"},
      {"measurement": "% FFA", "setting": "[3]; 1.0 ppm lipase at 55° C., 4 h, pre-liquefaction", "result": 58, "unit": "%"},
      {"measurement": "% FFA", "setting": "[3]; 1.0 ppm lipase at 55° C., 6 h, pre-liquefaction", "result": 57, "unit": "%"},
      {"measurement": "% FFA", "setting": "[3]; 1.0 ppm lipase, 0 h, 85° C., liq. mash", "result": 49, "unit": "%"},
      {"measurement": "% FFA", "setting": "[3]; 1.0 ppm lipase, 2 h, 85° C., liq. mash", "result": 50, "unit": "%"},
      {"measurement": "% FFA", "setting": "[3]; 1.0 ppm lipase, mix with OA, 20 h, 30° C., OA", "result": 62, "unit": "%"},
      {"measurement": "% FFA", "setting": "[3]; 1.0 ppm lipase, mix with OA, 20 h, 30° C., liq. mash", "result": 20, "unit": "%"},
      {"measurement": "% FFA", "setting": "[3]; 10 ppm lipase at 55° C., 1 h, pre-liquefaction", "result": 74, "unit": "%"},
      {"measurement": "% FFA", "setting": "[3]; 10 ppm lipase at 55° C., 2 h, pre-liquefaction", "result": 77, "unit": "%"},
      {"measurement": "% FFA", "setting": "[3]; 10 ppm lipase at 55° C., 4 h, pre-liquefaction", "result": 82, "unit": "%"},
      {"measurement": "% FFA", "setting": "[3]; 10 ppm lipase at 55° C., 6 h, pre-liquefaction", "result": 87, "unit": "%"},
      {"measurement": "% FFA", "setting": "[3]; 10 ppm lipase, 0 h, 85° C., liq. mash", "result": 86, "unit": "%"},
      {"measurement": "% FFA", "setting": "[3]; 10 ppm lipase, 2 h, 85° C., liq. mash", "result": 85, "unit": "%"},
      {"measurement": "% FFA", "setting": "[3]; 10 ppm lipase, mix with OA, 20 h, 30° C., OA", "result": 98, "unit": "%"},
      {"measurement": "% FFA", "setting": "[3]; 10 ppm lipase, mix with OA, 20 h, 30° C., liq. mash", "result": 48, "unit": "%"},
      {"measurement": "% FFA", "setting": "[1]; [4]", "result": 33, "unit": "%"},
      {"measurement": "% FFA", "setting": "[1]; 1 h, 10 ppm lipase", "result": 56, "unit": "%"},
      {"measurement": "% FFA", "setting": "[1]; 2 h, 10 ppm lipase", "result": 74, "unit": "%"},
      {"measurement": "% FFA", "setting": "[1]; 4 h, 10 ppm lipase", "result": 76, "unit": "%"},
      {"measurement": "% FFA", "setting": "[1]; 6 h, 10 ppm lipase", "result": 79, "unit": "%"}
    ]}
  ]
}
